Test results published in the supplement of paper PMC10126150.
± gives the standard deviation of the averaged measurements.

These sequences were tested on ATP (assay: switch fluorescence ratio, 500 uM ATP over buffer (Cy3 cluster intensity, sum of 5 cycles each) (fold (ratio)); higher = stronger signal-on switching upon ATP binding; sequences stand for … in TCGTCGGCAGCGTCAGATGTGTATAAGAGACAGTTTTTTTTTTTTTTTTTTTTTTTTT…TC). Details: aptamer strand: ATP DNA aptamer (quencher-CACCTGGGGGAGTATTGCGGAGGAAGG + anchor), 100 nM annealed; ATP concentration: 500 uM.
How it was run: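 Values give the fluorescence ratio for each switch-domain sequence, averaged from per-cluster ratios of summed target-cycle to summed buffer-cycle Cy3 intensity. The Cy3-labelled switching-strand clusters sat on a modified Illumina MiSeq flow-cell, were annealed to 100 nM quencher-labelled ATP aptamer, and were imaged in selection buffer, then after 15 min with 500 uM ATP at 22 °C. Five cycles ran with NaOH stripping and re-annealing between them, and clusters outside 100-1000 RFU were excluded.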
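Also: ATP exposure 15 min at 22 °C before imaging.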

Sequence | switch fluorescence ratio
GAAGGGGGTA | 0.996 ± 0.028
GAAGGGTATT | 1.01 ± 0.026
GAAGGGTGCG | 1.02 ± 0.034
GAAGGTGAAT | 1.04 ± 0.022
GAAGGTTAGG | 0.9866 ± 0.0081
GAAGTACGTC | 1.23 ± 0.18
GAAGTAGAGG | 1 ± 0.032
GAAGTAGCAG | 0.984 ± 0.025
GAAGTAGTGG | 1.01 ± 0.014
GAAGTATGAT | 0.962 ± 0.042
GAAGTCGAAT | 1.014 ± 0.0091
GAAGTCGGAT | 0.979 ± 0.019
GAAGTTTAAA | 1.02 ± 0.035
GAAGTTTGAT | 0.9867 ± 0.0011
GAATAAAGAG | 0.966 ± 0.034
GAATAACTGG | 0.993 ± 0.084
GAATAAGGGA | 1 ± 0.014
GAATAAGTCC | 1.04 ± 0.028
GAATAATGAT | 0.989 ± 0.028
GAATACGGGG | 1.06 ± 0.044
GAATAGAGGT | 1.02 ± 0.037
GAATATAATG | 0.978 ± 0.032
GAATATTTAG | 0.958 ± 0.015
GAATATTTCT | 1.02 ± 0.021
GAATCAGTGT | 1 ± 0.022

Sequence | switch fluorescence ratio
GAATCGGCAT | 1.02 ± 0.039
GAATCGGGGA | 1.012 ± 0.0031
GAATCTGTGT | 0.998 ± 0.031
GAATCTTGGA | 0.99 ± 0.015
GAATGAGTCT | 1.01 ± 0.091
GAATGCTCAC | 1.14 ± 0.064
GAATGGCCAG | 0.992 ± 0.034
GAATGGGACG | 1 ± 0.021
GAATGGGATC | 0.9698 ± 0.0059
GAATGGGGCA | 0.978 ± 0.032
GAATGGGGTC | 0.976 ± 0.011
GAATGGGGTT | 0.98 ± 0.026
GAATGGGTAG | 0.9961 ± 0.0042
GAATGGTTTT | 0.971 ± 0.084
GAATGTAGTT | 1.01 ± 0.017
GAATGTATGG | 1.04 ± 0.049
GAATTAAGTT | 1.01 ± 0.033
GAATTACGGC | 1.04 ± 0.069
GAATTAGCTT | 0.983 ± 0.023
GAATTAGTGT | 0.984 ± 0.019
GAATTATGGC | 1.01 ± 0.085
GAATTATTAA | 0.9922 ± 0.0026
GAATTCGGCT | 1.0193 ± 6.4e-05
GAATTCTCCG | 1.18 ± 0.012
GAATTCTCGT | 0.969 ± 0.024

Sequence | switch fluorescence ratio
GAATTCTGAG | 1.02 ± 0.04
GAATTGGATG | 0.965 ± 0.052
GAATTGGGAG | 0.998 ± 0.02
GAATTGGTTT | 0.999 ± 0.017
GAATTGTTCG | 0.985 ± 0.051
GAATTTGTTT | 0.984 ± 0.035
GAATTTTCG | 1.009 ± 0.0097
GAATTTTTGA | 0.991 ± 0.021
GACAAAGATT | 1.0037 ± 0.00037
GACAATAGGC | 1.1 ± 0.045
GACAATGGTT | 1 ± 0.027
GACAATTCGG | 1.01 ± 0.021
GACAGAAGGC | 1 ± 0.052
GACAGATATG | 0.979 ± 0.081
GACAGCCCAG | 1 ± 0.019
GACAGGGATG | 1.02 ± 0.039
GACAGGTCGT | 1.043 ± 0.0054
GACAGGTGGG | 1.07 ± 0.059
GACATAAAAG | 1.03 ± 0.053
GACATTCTCG | 1.005 ± 0.0086
GACATTTGTT | 0.986 ± 0.014
GACCACGGTC | 1.02 ± 0.041
GACCACTATC | 1.1 ± 0.02
GACCATACGT | 1.49 ± 0.026
GACCATGAAA | 0.96295 ± 0.0008

Sequence | switch fluorescence ratio
GACCATGGGG | 1.07 ± 0.098
GACCATTGTC | 0.99 ± 0.063
GACCATTTAA | 1.023 ± 0.0027
GACCCGCCAA | 4.89 ± 1
GACCCTTACC | 1.38 ± 0.014
GACCGATTGT | 1.03 ± 0.065
GACCGCAGCA | 4.22 ± 0.49
GACCTTGGGA | 0.992 ± 0.039
GACCTTTCGT | 1.1 ± 0.069
GACGAAAAAG | 0.982 ± 0.017
GACGACATGT | 1.09 ± 0.035
GACGACGTGC | 2.33 ± 0.44
GACGACTCGG | 0.987 ± 0.026
GACGAGCCTG | 0.996 ± 0.015
GACGAGGGGC | 1.18 ± 0.031
GACGATTATA | 1.028 ± 0.0017
GACGCACTGG | 1.853 ± 0.0015
GACGCGTGTG | 1.03 ± 0.042
GACGCTAAGG | 1.094 ± 0.0069
GACGGAGGCA | 1.03 ± 0.031
GACGGATACA | 1.38 ± 0.091
GACGGCTATG | 1 ± 0.048
GACGGGCAGG | 1.027 ± 0.0056
GACGGGGAAG | 1.08 ± 0.069
GACGGGGAAT | 0.979 ± 0.01

Sequence | switch fluorescence ratio
GACGGGGCGG | 0.994 ± 0.031
GACGGGGCTA | 1.01 ± 0.023
GACGGGGGGA | 1.03 ± 0.077
GACGGGGGGG | 1 ± 0.023
GACGGTAAAA | 1.04 ± 0.015
GACGGTAGTA | 1.02 ± 0.017
GACGGTGTGC | 1.077 ± 0.0059
GACGGTTCAG | 1.03 ± 0.023
GACGTACAAC | 1.619 ± 0.0099
GACGTACTCA | 1.51 ± 0.17
GACGTCTGGC | 1.14 ± 0.24
GACGTGATCC | 2.5 ± 0.8
GACGTGTTG | 1.01 ± 0.025
GACGTTAAAC | 1.56 ± 0.019
GACGTTAAAT | 1.01 ± 0.034
GACGTTTTGC | 1.073 ± 0.0083
GACTAACGCA | 1.25 ± 0.057
GACTAACGGA | 1.19 ± 0.1
GACTAACTAC | 1.251 ± 0.0087
GACTAAGGGG | 1 ± 0.02
GACTAATTAA | 0.978 ± 0.036
GACTAGGCCT | 0.988 ± 0.02
GACTAGTTAT | 0.993 ± 0.019
GACTATAATT | 1.026 ± 0.0032
GACTATGAGG | 1.02 ± 0.095

Sequence | switch fluorescence ratio
GACTATTGAA | 1 ± 0.056
GACTCAGGGG | 1.39 ± 0.56
GACTGCGGAA | 2.04 ± 0.038
GACTGGATAG | 0.983 ± 0.022
GACTGTAGGA | 1.03 ± 0.0051
GACTGTGAGA | 1 ± 0.034
GACTGTTATG | 0.989 ± 0.024
GACTTAATGG | 0.962 ± 0.051
GACTTAGTGT | 1.012 ± 0.0036
GACTTATGAG | 1.01 ± 0.047
GACTTGAATG | 0.976 ± 0.011
GACTTGACTG | 1.11 ± 0.03
GACTTGGGTG | 1.02 ± 0.038
GACTTGTGTA | 0.994 ± 0.016
GACTTTAGGG | 1.02 ± 0.065
GAGAAAAATG | 0.9597 ± 0.0087
GAGAAAAGGG | 1.04 ± 0.037
GAGAAAGCTA | 1.031 ± 0.0084
GAGAAAGGTT | 1.09 ± 0.2
GAGAACATGG | 1.03 ± 0.035
GAGAAGGGAC | 1.03 ± 0.046
GAGAATGGGG | 0.983 ± 0.024
GAGAATTGTA | 0.97 ± 0.03
GAGACAATTC | 1.06 ± 0.017
GAGACGCTTT | 1.04 ± 0.049

Sequence | switch fluorescence ratio
GAGACTATTT | 0.976 ± 0.056
GAGACTGATG | 1.05 ± 0.14
GAGACTTAGA | 1.007 ± 0.0038
GAGACTTGTT | 0.997 ± 0.042
GAGAGCCGAA | 1.02 ± 0.062
GAGAGCGGGG | 0.968 ± 0.033
GAGAGGGAAT | 1.021 ± 0.0091
GAGAGGGGTA | 0.974 ± 0.014
GAGAGGGTAC | 1.03 ± 0.063
GAGAGTGAAT | 1.01 ± 0.081
GAGAGTTAAA | 0.976 ± 0.015
GAGATAAGAG | 1.01 ± 0.022
GAGATAAGCT | 1.04 ± 0.022
GAGATAGAGA | 1.02 ± 0.03
GAGATATTGT | 1.03 ± 0.038
GAGATCGTCG | 0.993 ± 0.01
GAGATCTTGG | 0.9824 ± 0.0045
GAGATGAGCG | 0.997 ± 0.035
GAGATGCGAG | 0.963 ± 0.021
GAGATGTGCG | 0.9319 ± 0.008
GAGATTGGGT | 1.001 ± 0.0077
GAGATTTTTT | 1.018 ± 0.0091
GAGCAATTTT | 2.31 ± 0.15
GAGCACAGGT | 2.33 ± 0.12
GAGCACGTAT | 1.03 ± 0.063

Sequence | switch fluorescence ratio
GAGCCACCAC | 1.051 ± 0.002
GAGCCCTCGG | 0.999 ± 0.023
GAGCCGGGCC | 0.99 ± 0.023
GAGCGAGAAG | 1.01 ± 0.028
GAGCGATGTC | 1.07 ± 0.035
GAGCGCCCGT | 1.01 ± 0.0017
GAGCGCCGGG | 1.01 ± 0.017
GAGCGGGGGT | 1.01 ± 0.013
GAGCTAGGAG | 1 ± 0.024
GAGCTGGGGA | 0.983 ± 0.012
GAGCTTGCGA | 1.03 ± 0.044
GAGCTTTGAT | 0.996 ± 0.024
GAGCTTTGTT | 0.984 ± 0.018
GAGCTTTTGA | 0.971 ± 0.04
GAGGAAAGGC | 0.999 ± 0.058
GAGGAACGTG | 0.967 ± 0.014
GAGGAAGCGA | 1.18 ± 0.059
GAGGACTTAG | 0.989 ± 0.022
GAGGAGAAGA | 1.02 ± 0.027
GAGGAGAATT | 0.983 ± 0.018
GAGGAGACGT | 1.03 ± 0.019
GAGGAGCGGT | 1 ± 0.017
GAGGAGGCCA | 0.9828 ± 0.0053
GAGGAGGGGA | 1.01 ± 0.018
GAGGATGGGT | 0.933 ± 0.024
